Experimental data reported in US20110171285A1, “Design of Fibrinogen and Fibrinogen Derived Products with Reduced Bacterial Binding by Using Modified Sequences of Fibrinogen Chains” (priority 2009, published 2011).

Target: human platelet integrin αIIbβ3 (human), P08514
Experiment: competition ELISA: integrin αIIbβ3 coated, 10 nM human Fg added with varying peptide, bound Fg detected with anti-Fg antibodies/HRP

IC50 (read off the curve): 10 µM
Binder: GQQHHLGGAKQAGDV (modifications not checked) [human 15-mer C-terminal Fg γ-chain peptide (…)]
